Columns and labels:
[1] = target: T1, phiC31 integrase (Streptomyces bacteriophage phiC31) (UniProt Q9T221); experiment: cell_activity; details: attP x attB, S. pombe, day 7
T1 sequence: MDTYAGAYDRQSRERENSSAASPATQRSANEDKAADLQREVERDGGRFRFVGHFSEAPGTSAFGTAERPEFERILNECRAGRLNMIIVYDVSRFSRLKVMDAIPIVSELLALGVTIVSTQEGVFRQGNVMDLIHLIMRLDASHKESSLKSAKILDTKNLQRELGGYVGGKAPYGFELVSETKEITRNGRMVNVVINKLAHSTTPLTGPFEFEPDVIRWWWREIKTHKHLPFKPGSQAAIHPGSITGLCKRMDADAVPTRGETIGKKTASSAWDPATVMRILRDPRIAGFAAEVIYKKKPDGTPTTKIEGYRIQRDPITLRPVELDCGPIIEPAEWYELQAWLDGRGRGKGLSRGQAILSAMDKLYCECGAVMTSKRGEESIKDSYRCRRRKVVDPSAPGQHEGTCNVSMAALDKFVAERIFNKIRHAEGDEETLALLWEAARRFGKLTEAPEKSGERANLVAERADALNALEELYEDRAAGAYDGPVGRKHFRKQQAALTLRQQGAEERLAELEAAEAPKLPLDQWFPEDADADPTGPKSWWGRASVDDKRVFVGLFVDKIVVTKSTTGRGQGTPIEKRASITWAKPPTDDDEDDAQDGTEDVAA

[2] = tested on: Cre recombinase (bacteriophage P1); experiment: cell_activity; details: positive control, S. pombe, day 7

Row | Substance | activity [1] [% excision] | activity [2] [% excision]
1 | phiC31 attP x attB | 80 | 
2 | lox |  | 100
